Molecular target: VLDLRLBD-Fc fusion protein (human, UniProt P98155-1 31-355)
Experiment: BLI; […] (2.6 µM) […]; kinetic buffer with 2 mM CaCl2
Conditions: both partners purified

B1: receptor-associated protein (RAP) (natural protein, human, UniProt P30533 35-353, looked up)
chain: YSREKNQPKPSPKRESGEEFRMEKLNQLWEKAQRLHLPPVRLAELHADLKIQERDELAWKKLKLDGLDEDGEKEARLIRNLNVILAKYGLDGKKDARQVTSNSLSGTQEDGLDDPRLEKLWHKAKTSGKFSGEELDKLWREFLHHKEKVHEYNVLLETLSRTEEIHENVISPSDLSDIKGSVLHSRHTELKEKLRSINQGLDRLRRVSHQGYSTEAEFEEPRVIDLWDLAQSANLTDKELEAFREELKHFEAKIEKHNHYQKQLEIAHEKLRHAESVGDGERVSRSREKHALLEGRTKELGYTVKKHLQDLSGRISRAR
  binding result: binds

From publication PMC11297306 (Nature Communications, 2024)
